Test: pNPA microplate assay (enzyme specific activity)
Assay type: biochemical
Conditions: 30 °C, pH 7.2
Procedure: Into each of four wells of a 96-well microplate were added 170 μL of potassium phosphate buffer (50 mM, pH 7.2) and either 10 μL of 0.1 mg total protein/mL of cell lysate, or 10 μL of 0.02 mg total protein/mL of a spray-dried enzyme solution. The plate was covered and placed in a microplate reader (Molecular Devices SPECTRAmax® 384 Plus), then mixed for several seconds and equilibrated at 30° C. for 10 minutes. To each well of the plate was then simultaneously added 20 μL of a 30 mM pNPA solution prepared by mixing (immediately prior to use) 0.6 mL of 100 mM pNPA in acetonitrile with 1.4 mL of 50 mM potassium phosphate buffer (pH 7.2). The change in absorbance at 400 nm was measured over 1 minute of reaction time. The background rate of pNPA hydrolysis (subtracted from the rate of hydrolysis measured in the presence of enzyme) was separately measured in four wells by substituting 10 μL/well of potassium phosphate buffer (50 mM, pH 7.2) for cell lysate or enzyme-containing solution. The extinction coefficient for para-nitrophenol, measured at pH 7.2 in a 1-cm path length cell, was 10,909 L·cm^−1·mol^−1. One pNPA Unit of enzyme activity is equivalent to the amount of protein that catalyzes the hydrolysis of one micromole of pNPA in one minute.

| Molecule | Specific activity of spray-dried enzyme powder [pNPA U/mg protein] |
| --- | --- |
| T. maritima perhydrolase spray-dried enzyme powder: Spray-dried wild type acetyl xylan esterase from Thermotoga maritima, 27.8 wt % protein (protein, UniProt Q9WXT2 1-325, looked up, spray-dried powder, Spray-dried wild type acetyl xylan esterase from Thermotoga maritima, 27.8 wt % protein) Cephalosporin-C deacetylase: MAFFDLPLEELKKYRPERYEEKDFDEFWEETLAESEKFPLDPVFERMESHLKTVEAYDVTFSGYRGQRIKGWLLVPKLEEEKLPCVVQYIGYNGGRGFPHDWLFWPSMGYICFVMDTRGQGSGWLKGDTPDYPEGPVDPQYPGFMTRGILDPRTYYYRRVFTDAVRAVEAAASFPQVDQERIVIAGGSQGGGIALAVSALSKKAKALLCDVPFLCHFRRAVQLVDTHPYAEITNFLKTHRDKEEIVFRTLSYFDGVNFAARAKIPALFSVGLMDNICPPSTVFAAYNYYAGPKEIRIYPYNNHEGGGSFQAVEQVKFLKKLFEKG | 86.1 |
| T. maritima C277S perhydrolase spray-dried enzyme powder: Spray-dried T. maritima acetyl xylan esterase C277S mutant, 25.5 wt % protein (protein, UniProt Q9WXT2 1-325, looked up, variant C277S, spray-dried powder, Spray-dried T. maritima acetyl xylan esterase C277S mutant, 25.5 wt % protein) Cephalosporin-C deacetylase: MAFFDLPLEELKKYRPERYEEKDFDEFWEETLAESEKFPLDPVFERMESHLKTVEAYDVTFSGYRGQRIKGWLLVPKLEEEKLPCVVQYIGYNGGRGFPHDWLFWPSMGYICFVMDTRGQGSGWLKGDTPDYPEGPVDPQYPGFMTRGILDPRTYYYRRVFTDAVRAVEAAASFPQVDQERIVIAGGSQGGGIALAVSALSKKAKALLCDVPFLCHFRRAVQLVDTHPYAEITNFLKTHRDKEEIVFRTLSYFDGVNFAARAKIPALFSVGLMDNISPPSTVFAAYNYYAGPKEIRIYPYNNHEGGGSFQAVEQVKFLKKLFEKG | 129.5 |
